Data reported in US9902783B2, “Antibodies and pharmaceutical compositions containing same useful for inhibiting activity of metalloproteins” (Yeda Research and Development Co. Ltd., priority 2007, dated 2018).

B1: 6C6: monoclonal antibody, IgG2a, raised against the hapten Imisdp; MMP-2 and MMP-9 inhibitory; SEQ ID NO: 1 (protein)
chain: CMETTQTPLSLPVSLGDQASISCRSSQSIVHSNGNTFLEWYLQKPGQSPKLLIYKVSNCRFSGVPDRFSGSGSGTDFTLKISRVEAEDLGVYYCFQASHVPPTFGGG
modifications: 6c6 mAb light chain
B2: 13E11: monoclonal antibody, IgG2b, raised against the hapten CoTCPP (antibody, V domains shown)
VH: EGGGLVQPGGSRKLSCAASGFTFTSFGMHWVRQAPEKGLEWVAYISSGNEIIYYADTVKGRFTISRDNPKNTLFLQMTSLRSEDTAMYYCARNYYRYGFYVMDYWGQG
VL: EIVVTQSPAILSASPGEKVTMTCRASSSVSYMHWYQQKPGSSPKPWIYATSNELASGVPARFSGSGSGTSYSLTISRVEAEDAATYYCQQWISNPLTFGAG
modifications: 13E11 mAb heavy chain; 13E11 mAb light chain
notes: monoclonal antibody, IgG2b, raised against the hapten CoTCPP

What was measured:
[1] = target: T1, active MMP-9 (Mus musculus, UniProt P41245); assay: co-purification of active MMP-9 with mAb from mice ascites fluid (western blot); type: binding; conditions: co-purified from mice ascites fluid, about 82 KDa band in western blot
T1 construct: corresponding to active MMP9 lacking the pro-domain was identified; from tissue; host or cells: mouse ascites fluid
Procedure: FIGS. 11A-11D are photographs and models illustrating that 6C6 binds only the active conformation of MMP9 and MMP2. FIG. 11A: Detection of active MMP9 that co-purified with 6C6 from mice ascites fluid. MAb (10 μg) purified from mice ascites fluid containing MMP9, was subjected to western blot (WB) analysis using commercial anti MMP9 antibody. Non related IgG mAb that has been purified in the same manner, served as negative control (MAb Control). Human ProMMP9 purified from Hilla transfected cells served as molecular weight marker to discern the active species. Purification was done by affinity chromatography using protein G beads which bind mAb via its constant domain, leaving the antigen binding site free to interact with the antigen. FIGS. 11B,C: 6C6 mAb immobilized to protein A beads was analyzed for its ability to pull down ProMMP2, ProMMP9, or MMP2 catalytic fragment (lacking the hemopexin and pro domains) from solution. […]
Selected hybridomas were subcloned twice by limited dilutions, followed by large-scale production by ascites tumors primed with pristine (2,6,10,14 tetrametylpentadecane) injected BALB/c mice. […] The elution peak was analyzed by SDS-PAGE.
Purified antibodies were separated in 8% SDS-polyacrylamide gel, transferred to NC membranes (Bio-Rad), and subsequently subjected to immunoblot analysis using anti MMP-9 antibody (Sigma). […] Signals were detected using ECL (Pierce).

[2] = cross reactivity, competitive ELISA and immuno affinity assay, vitamin; type: binding
Source text: The selectivity of anti CoTCPP and anti Imisdp was further challenged, by testing their cross reactivity with non related zinc dependent enzymes—Carbonic Anhydrase (CA) and brockii alcohol dehydrogenase (TbADH). Similar to active MMPs CA contains a zinc ion that is tetrahedraly coordinated to three histidine residues and a water molecule, TbADH contains a catalytic zinc ion that is tetraheadrally coordinated to four different amino acid residues, histidine, cysteine, aspartate and glutamate. […] Anti CoTCPP mAb was also tested for its cross reactivity with related physiological porphyrins such as the Heme group within Myoglobin and Hemoglobin and vitamin.
Carbonic anhydrase, and alcohol dehydrogenase all have rather buried active sites, similarly, the porphyrin moiety in Myoglobin and Hemoglobin is not exposed. Vitamin B 12 contains metal at the center of planer […] structure yet the axial ligands may interfere with the binding of the mAb.

T1 sequence (P41245 108-730): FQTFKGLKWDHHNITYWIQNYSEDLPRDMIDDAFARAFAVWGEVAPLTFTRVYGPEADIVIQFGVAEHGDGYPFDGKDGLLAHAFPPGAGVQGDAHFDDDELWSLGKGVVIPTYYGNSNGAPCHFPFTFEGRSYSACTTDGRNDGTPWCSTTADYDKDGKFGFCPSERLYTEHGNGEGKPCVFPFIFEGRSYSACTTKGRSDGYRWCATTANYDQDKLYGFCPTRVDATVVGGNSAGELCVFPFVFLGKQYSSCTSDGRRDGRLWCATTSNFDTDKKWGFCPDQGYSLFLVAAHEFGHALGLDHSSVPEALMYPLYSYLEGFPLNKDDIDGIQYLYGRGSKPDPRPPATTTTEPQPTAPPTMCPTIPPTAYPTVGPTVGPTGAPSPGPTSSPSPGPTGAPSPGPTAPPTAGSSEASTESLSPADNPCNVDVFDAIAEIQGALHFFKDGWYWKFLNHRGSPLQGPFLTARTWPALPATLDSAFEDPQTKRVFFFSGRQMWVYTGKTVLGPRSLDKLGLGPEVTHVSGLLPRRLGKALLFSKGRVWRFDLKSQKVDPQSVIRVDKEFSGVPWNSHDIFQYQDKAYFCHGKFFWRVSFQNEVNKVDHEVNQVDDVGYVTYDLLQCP

Molecule | in vivo complex with active MMP-9 [1] | cross reactivity with vitamin [2]
B1 | formed a specific in vivo complex | –
B2 | – | No cross was detected
